Source: patent US20150344570A1 (published 2015)

T1: FcγRIIb (human, UniProt P31994 43-217)
T1 construct: extracellular domain; Soluble extracellular domain with C-terminal His tag, used as analyte in Biacore; also called FcgRIIb; 2b; not shown: His tag attached to the C terminus
T1 sequence (looked up): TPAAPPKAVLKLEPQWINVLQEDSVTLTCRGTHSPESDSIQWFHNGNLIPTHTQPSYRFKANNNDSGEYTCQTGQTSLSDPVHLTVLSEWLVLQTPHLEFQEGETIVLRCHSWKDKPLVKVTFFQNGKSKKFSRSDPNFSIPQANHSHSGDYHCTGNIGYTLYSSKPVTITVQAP


Target: T2, FcγRIa (human, UniProt P12314 16-292)
T2 construct: extracellular domain; soluble extracellular domain with C-terminal His tag, expressed in FreeStyle293 cells; also called FcgRI; FcgRIa
Experiment: SPR (Biacore), captured antibody, FcγRIa analyte; relative to HoCon Ab GpH7-B3/GpL16-k0 = 100
T2 sequence (P12314 16-292): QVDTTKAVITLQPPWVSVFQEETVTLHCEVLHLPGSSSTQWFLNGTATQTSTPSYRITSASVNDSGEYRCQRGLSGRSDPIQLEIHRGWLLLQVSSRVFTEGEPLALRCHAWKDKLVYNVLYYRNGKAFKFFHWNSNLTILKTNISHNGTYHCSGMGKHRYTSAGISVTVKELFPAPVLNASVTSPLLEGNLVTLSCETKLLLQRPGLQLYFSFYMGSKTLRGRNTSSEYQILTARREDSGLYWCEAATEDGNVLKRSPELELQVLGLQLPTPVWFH

Binder | Ho/Con_1a
GpH7-B3 variant E269_06M/GpL16-k0 (antibody, human IgG1, kappa, homodimerized IgG1, mutation in both H chains; also called Ho Ab) heavy: not shown light: DIVMTQSPLSLPVTPGEPASISCQASESLVHSNRNTYLHWYLQKPGQSPQLLIYKVSNRFSGVPDRFSGSGSGTDFTLKISRVEAEDVGVYYCSQNTHVPPTFGQGTKVEIERTVAAPSVFIFPPSDEQLKSGTASVVCLLNNFYPREAKVQWKVDNALQSGNSQESVTEQDSKDSTYSLSSTLTLSKADYEKHKVYACEVTHQGLSSPVTKSFNRGEC | 101 % of control
GpH7-B3 variant E269_04F/GpL16-k0 (antibody, human IgG1, kappa, homodimerized IgG1, mutation in both H chains; also called Ho Ab) heavy: not shown light: DIVMTQSPLSLPVTPGEPASISCQASESLVHSNRNTYLHWYLQKPGQSPQLLIYKVSNRFSGVPDRFSGSGSGTDFTLKISRVEAEDVGVYYCSQNTHVPPTFGQGTKVEIERTVAAPSVFIFPPSDEQLKSGTASVVCLLNNFYPREAKVQWKVDNALQSGNSQESVTEQDSKDSTYSLSSTLTLSKADYEKHKVYACEVTHQGLSSPVTKSFNRGEC | 102 % of control
GpH7-B3 variant A327_09D/GpL16-k0 (antibody, human IgG1, kappa, homodimerized IgG1, mutation in both H chains; also called Ho Ab) heavy: not shown light: DIVMTQSPLSLPVTPGEPASISCQASESLVHSNRNTYLHWYLQKPGQSPQLLIYKVSNRFSGVPDRFSGSGSGTDFTLKISRVEAEDVGVYYCSQNTHVPPTFGQGTKVEIERTVAAPSVFIFPPSDEQLKSGTASVVCLLNNFYPREAKVQWKVDNALQSGNSQESVTEQDSKDSTYSLSSTLTLSKADYEKHKVYACEVTHQGLSSPVTKSFNRGEC | 102 % of control
GpH7-B3 variant A330_09D/GpL16-k0 (antibody, human IgG1, kappa, homodimerized IgG1, mutation in both H chains; also called Ho Ab) heavy: not shown light: DIVMTQSPLSLPVTPGEPASISCQASESLVHSNRNTYLHWYLQKPGQSPQLLIYKVSNRFSGVPDRFSGSGSGTDFTLKISRVEAEDVGVYYCSQNTHVPPTFGQGTKVEIERTVAAPSVFIFPPSDEQLKSGTASVVCLLNNFYPREAKVQWKVDNALQSGNSQESVTEQDSKDSTYSLSSTLTLSKADYEKHKVYACEVTHQGLSSPVTKSFNRGEC | 108 % of control
GpH7-B3 variant E269_15Y/GpL16-k0 (antibody, human IgG1, kappa, homodimerized IgG1, mutation in both H chains; also called Ho Ab) heavy: not shown light: DIVMTQSPLSLPVTPGEPASISCQASESLVHSNRNTYLHWYLQKPGQSPQLLIYKVSNRFSGVPDRFSGSGSGTDFTLKISRVEAEDVGVYYCSQNTHVPPTFGQGTKVEIERTVAAPSVFIFPPSDEQLKSGTASVVCLLNNFYPREAKVQWKVDNALQSGNSQESVTEQDSKDSTYSLSSTLTLSKADYEKHKVYACEVTHQGLSSPVTKSFNRGEC | 100 % of control
GpH7-B3 variant E269_08L/GpL16-k0 (antibody, human IgG1, kappa, homodimerized IgG1, mutation in both H chains; also called Ho Ab) heavy: not shown light: DIVMTQSPLSLPVTPGEPASISCQASESLVHSNRNTYLHWYLQKPGQSPQLLIYKVSNRFSGVPDRFSGSGSGTDFTLKISRVEAEDVGVYYCSQNTHVPPTFGQGTKVEIERTVAAPSVFIFPPSDEQLKSGTASVVCLLNNFYPREAKVQWKVDNALQSGNSQESVTEQDSKDSTYSLSSTLTLSKADYEKHKVYACEVTHQGLSSPVTKSFNRGEC | 101 % of control

Now from value to binder:

Ho/Con_1a | Binder
103 % of control | GpH7-B3 variant I336_02A/GpL16-k0 (antibody, human IgG1, kappa, homodimerized IgG1, mutation in both H chains; also called Ho Ab) heavy: not shown light: DIVMTQSPLSLPVTPGEPASISCQASESLVHSNRNTYLHWYLQKPGQSPQLLIYKVSNRFSGVPDRFSGSGSGTDFTLKISRVEAEDVGVYYCSQNTHVPPTFGQGTKVEIERTVAAPSVFIFPPSDEQLKSGTASVVCLLNNFYPREAKVQWKVDNALQSGNSQESVTEQDSKDSTYSLSSTLTLSKADYEKHKVYACEVTHQGLSSPVTKSFNRGEC
101 % of control | GpH7-B3 variant E333_13S/GpL16-k0 (antibody, human IgG1, kappa, homodimerized IgG1, mutation in both H chains; also called Ho Ab) heavy: not shown light: DIVMTQSPLSLPVTPGEPASISCQASESLVHSNRNTYLHWYLQKPGQSPQLLIYKVSNRFSGVPDRFSGSGSGTDFTLKISRVEAEDVGVYYCSQNTHVPPTFGQGTKVEIERTVAAPSVFIFPPSDEQLKSGTASVVCLLNNFYPREAKVQWKVDNALQSGNSQESVTEQDSKDSTYSLSSTLTLSKADYEKHKVYACEVTHQGLSSPVTKSFNRGEC
100 % of control | GpH7-B3 variant E333_01G/GpL16-k0 (antibody, human IgG1, kappa, homodimerized IgG1, mutation in both H chains; also called Ho Ab) heavy: not shown light: DIVMTQSPLSLPVTPGEPASISCQASESLVHSNRNTYLHWYLQKPGQSPQLLIYKVSNRFSGVPDRFSGSGSGTDFTLKISRVEAEDVGVYYCSQNTHVPPTFGQGTKVEIERTVAAPSVFIFPPSDEQLKSGTASVVCLLNNFYPREAKVQWKVDNALQSGNSQESVTEQDSKDSTYSLSSTLTLSKADYEKHKVYACEVTHQGLSSPVTKSFNRGEC

Target: T3, FcγRIa (human, UniProt P12314 16-292)
T3 construct: extracellular domain; Soluble extracellular domain with C-terminal His tag, used as analyte in Biacore; also called FcgRI; 1a; not shown: His tag attached to the C terminus
Experiment: SPR (Biacore), antibody captured, FcγR as analyte; relative to GpH7-A5/GpH7-B3/GpL16-k0 = 100
Procedure: (§1) The heterodimerized antibodies He Abs in which one of the H chains was introduced with an alteration were assayed for their binding activities to each activating FcγR and inhibitory FcγR according to the method described in Example 4. […] The activating FcγRs in FIGS. 26, 27, 28, and 29 are FcγRIa, FcγRIIa (R), FcγRIIa (H), and FcγRIIIa, respectively.
(§2) Analysis of interaction between objective antibody and the FcγR was carried out using Biacore T100 (GE Healthcare). HBS-EP+ (GE Healthcare) was used as the running buffer, and the measurement temperature was set to 25° C. Chips produced by immobilizing the antigen peptide by the amine coupling method to a Series S Sencor Chip CM5 (GE Healthcare), or alternatively, chips produced by allowing preliminarily biotinylated antigen peptides to interact with and immobilize onto a Series S Sensor Chip SA (certified) (GE Healthcare) were used. Antibodies of interest were captured onto an antigen peptide-immobilized chip, and allowed to interact to each FcγR diluted with running buffer. To regenerate and repeatedly use the chip, the antibodies captured on the chip were washed off by reacting 10 mM glycine-HCl, pH 1.5.
T3 sequence (P12314 16-292): as the sequence (P12314 16-292) above

He/Con_1a | Binder
98.1 % of control (=100) | GpH7-A5/GpH7-B3 variant V266_08L/GpL16-k0 (antibody, human IgG1, kappa, Heterodimerized anti-glypican-3 IgG1; alteration in the GpH7-B3 chain only; also called He Ab) heavy 1: not shown heavy 2: not shown light: DIVMTQSPLSLPVTPGEPASISCQASESLVHSNRNTYLHWYLQKPGQSPQLLIYKVSNRFSGVPDRFSGSGSGTDFTLKISRVEAEDVGVYYCSQNTHVPPTFGQGTKVEIERTVAAPSVFIFPPSDEQLKSGTASVVCLLNNFYPREAKVQWKVDNALQSGNSQESVTEQDSKDSTYSLSSTLTLSKADYEKHKVYACEVTHQGLSSPVTKSFNRGEC

Target: T1, FcγRIIb
Experiment: as above
Procedure: as §1, §2

He/Con_2b | Binder
236 % of control (=100) | GpH7-A5/GpH7-B3 variant V266_08L/GpL16-k0 (antibody, human IgG1, kappa, Heterodimerized anti-glypican-3 IgG1; alteration in the GpH7-B3 chain only; also called He Ab) heavy 1: not shown heavy 2: not shown light: DIVMTQSPLSLPVTPGEPASISCQASESLVHSNRNTYLHWYLQKPGQSPQLLIYKVSNRFSGVPDRFSGSGSGTDFTLKISRVEAEDVGVYYCSQNTHVPPTFGQGTKVEIERTVAAPSVFIFPPSDEQLKSGTASVVCLLNNFYPREAKVQWKVDNALQSGNSQESVTEQDSKDSTYSLSSTLTLSKADYEKHKVYACEVTHQGLSSPVTKSFNRGEC
